± gives the uncertainty stated by the source.
Assay: self-splicing fitness, log relative to wild type (ln ratio); higher = more splicing; Tetrahymena group I intron in knt gene, E. coli kanamycin selection, DiMSum; sequences stand for … in CUCUCU…GGAGGGAAAAGUUAUCAGGCAUGCACCUGGUAGCUAGUCUUUAAACCAAUAGAUUGCAUCGGUUUAAAAGGCAAGACCGUCAAAUUGCGGGAAAGGGGUCAACAGCCGUUCAGUACCAAGUCUCAGGGGAAACUUUGAGAUGGCCUUGCAAAGGGUAUGGUAAUAAGCUGACGGACAUGGUCCUAACCACGCAGCCAAGUCCUAAGUCAACAGAUCUUCUGUUGAUAUGGAUGCAGUUCACAGACUAAAUGUCGGUCGGGGAAGAUGUAUUCUUCUCAUAAGAUAUAGUCGGACCUCUCCUUAAUGGGAGCUAGCGGAUGAAGUGAUGCAACACUGGAGCCGCUGGGAACUAAUUUGUAUGCGAAAGUAUAUUGAUUAGUUUUGGAGUACUCGUGGUCG
Summary of the method: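 Pooled colonies went to amplicon sequencing on an Illumina HiSeq 2500 after six replicate transformations. The plates were LB agar with 100 μg/mL carbenicillin, 50 μM IPTG and 0.2% rhamnose, with or without 25 μg/mL kanamycin, incubated overnight at 37°C or 30°C. The E. coli BL21(DE3) library had all eight P1ex-region intron nucleotides randomised, the intron placed in the knt kanamycin-resistance gene on pET-22b(+). DiMSum fitness is the error-weighted combination of replicate fold changes, kanamycin against none, normalised to wild type.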

| Sequence | self-splicing fitness (ln) (30 °C) | self-splicing fitness (ln) (37 °C) |
| --- | --- | --- |
| ACACAGCAAUAUUACGCGCU | -0.741 ± 0.059 | -0.491 ± 0.068 |
| GGCCAGCAAUAUUACGUCCA | -1.61 ± 0.17 | -0.128 ± 0.15 |
| AACAAGCAAUAUUACGCUGC | -3.38 ± 0.3 | -2.45 ± 0.28 |
| AAUUAGCAAUAUUACGAUUG | -2.58 ± 0.2 | -1.14 ± 0.22 |
| AUCCAGCAAUAUUACGCAAG | -2.75 ± 0.18 | 0.207 ± 0.14 |
| ACCUAGCAAUAUUACGUUCG | -1.5 ± 0.078 | -0.444 ± 0.096 |
| ACGAAGCAAUAUUACGUAUA | -2.5 ± 0.12 | -2.16 ± 0.12 |
| CUCUAGCAAUAUUACGGCUG | -2.87 ± 0.24 | -2.31 ± 0.25 |
| GGGAAGCAAUAUUACGUUCU | -3.66 ± 0.22 | -3.52 ± 0.25 |
| GGGGAGCAAUAUUACGCUUG | -2.43 ± 0.17 | -0.967 ± 0.18 |
| CCAAAGCAAUAUUACGAGCG | -0.496 ± 0.069 | -0.161 ± 0.1 |
| GAGAAGCAAUAUUACGCUGC | -2.78 ± 0.46 | -2.26 ± 0.49 |
| CCUAAGCAAUAUUACGGGGC | -2.45 ± 0.2 | -2.61 ± 0.22 |
| GUUCAGCAAUAUUACGUACG | -1.32 ± 0.1 | -0.0258 ± 0.11 |
| GCUAAGCAAUAUUACGGCUU | -0.732 ± 0.1 | -0.973 ± 0.16 |
| CUCGAGCAAUAUUACGCGCA | -2.79 ± 0.48 |  |
| GGGCAGCAAUAUUACGAGGU | -4.65 ± 0.38 | -2.77 ± 0.24 |
| AGAAAGCAAUAUUACGCACG | -0.407 ± 0.18 | -0.88 ± 0.22 |
| GACUAGCAAUAUUACGUCCU | -1.15 ± 0.2 | 0.446 ± 0.17 |
| GGUUAGCAAUAUUACGAUUG | -1.56 ± 0.19 | -1.1 ± 0.21 |
| AGGAAGCAAUAUUACGACAU | -0.63 ± 0.014 | -0.543 ± 0.033 |
| CACAAGCAAUAUUACGCGUG | -2.76 ± 0.16 | -2.24 ± 0.22 |
| CAUCAGCAAUAUUACGUCUU | -3.53 ± 0.14 | -2.19 ± 0.12 |
| UGCCAGCAAUAUUACGUGUG | -1.49 ± 0.052 | -1.14 ± 0.071 |

| Sequence | self-splicing fitness (ln) (30 °C) | self-splicing fitness (ln) (37 °C) |
| --- | --- | --- |
| GUAAAGCAAUAUUACGCACA | 0.186 ± 0.082 | 0.579 ± 0.11 |
| UUACAGCAAUAUUACGUUAU | -1.91 ± 0.087 | -1.98 ± 0.14 |
| UGCCAGCAAUAUUACGGGUA | -2.25 ± 0.15 | -1.24 ± 0.15 |
| UAAAAGCAAUAUUACGUGUG | -1.07 ± 0.052 | -0.712 ± 0.069 |
| GAUCAGCAAUAUUACGCCCG | -0.808 ± 0.25 | -0.447 ± 0.21 |
| CCGGAGCAAUAUUACGAGGC | -1.99 ± 0.34 | -2.86 ± 0.38 |
| GGCUAGCAAUAUUACGUGAG | -1.21 ± 0.087 | -0.194 ± 0.092 |
| UUGCAGCAAUAUUACGUUGC | -1.47 ± 0.1 | -2.86 ± 0.21 |
| AAAGAGCAAUAUUACGGACU | -1.36 ± 0.12 | -1.59 ± 0.16 |
| UGCCAGCAAUAUUACGCGGC |  | -1.85 ± 0.35 |
| UAACAGCAAUAUUACGGAUA | -0.969 ± 0.088 | -0.486 ± 0.1 |
| GUAUAGCAAUAUUACGGCCA | -0.388 ± 0.23 | 0.0249 ± 0.18 |
| CCAAAGCAAUAUUACGCCCG | -0.324 ± 0.15 | 0.862 ± 0.18 |
| AGAAAGCAAUAUUACGUAGU | -2.98 ± 0.15 | -1.55 ± 0.1 |
| AUUCAGCAAUAUUACGGCAA | -0.94 ± 0.083 | 0.292 ± 0.1 |
| AAGCAGCAAUAUUACGGCUG | -2.92 ± 0.12 | -2.75 ± 0.16 |
| UGCCAGCAAUAUUACGAAAG | -2.78 ± 0.13 | -1.4 ± 0.15 |
| CUACAGCAAUAUUACGGGGG | -3.39 ± 0.2 | -2.26 ± 0.15 |
| CAGGAGCAAUAUUACGAGAA |  | -0.522 ± 0.22 |
| GUCGAGCAAUAUUACGUCGG |  | -2.34 ± 0.22 |
| UGACAGCAAUAUUACGACUC | -2.23 ± 0.17 | -0.483 ± 0.17 |
| UCUGAGCAAUAUUACGAGGA | -3.8 ± 0.4 | -3.29 ± 0.42 |
| ACAUAGCAAUAUUACGAGGG | -3.52 ± 0.19 | -3.05 ± 0.29 |
| ACUGAGCAAUAUUACGUUGA | -3.25 ± 0.15 | -2.48 ± 0.15 |
